Measured values published in paper PMC5146272, “Structure of the RBM7–ZCCHC8 core of the NEXT complex reveals connections to splicing factors” (Nature Communications, 2016).

T1: RBM7^1–137 (Z-tagged RBM7, residues 1–137) (human, UniProt Q9Y580 1-137)
T1 construct: source: bacterial cells, in lysate (pull-downs); purified (MST)
T1 sequence (looked up): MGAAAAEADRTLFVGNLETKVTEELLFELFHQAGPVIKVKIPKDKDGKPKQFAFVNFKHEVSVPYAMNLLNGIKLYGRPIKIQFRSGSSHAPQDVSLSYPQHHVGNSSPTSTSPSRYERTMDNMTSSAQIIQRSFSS

T2: RBM7 1-98 (RRM);ZCCHC8Pro (proline-rich segment) (Homo sapiens;Homo sapiens, UniProt Q9Y580;Q6NZY4 1-98;285-324, |)
T2 sequence 1: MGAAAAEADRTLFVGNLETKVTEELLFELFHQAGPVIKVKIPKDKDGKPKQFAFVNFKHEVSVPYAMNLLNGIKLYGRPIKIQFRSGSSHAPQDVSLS
T2 sequence 2: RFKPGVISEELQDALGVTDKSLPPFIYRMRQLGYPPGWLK

T3: RBM7 1-98 (RRM) (Homo sapiens, UniProt Q9Y580 1-98)
T3 sequence: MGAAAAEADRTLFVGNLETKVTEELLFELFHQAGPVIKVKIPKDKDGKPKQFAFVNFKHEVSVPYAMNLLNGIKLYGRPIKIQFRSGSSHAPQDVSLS


Tests used:
[1] = target: T1, RBM7^1–137 (Z-tagged RBM7, residues …); test: MST; 30 nM ZCCHC8^Pro-(GS)3-eYFP constant, unlabelled RBM7 1-137 titrated from 0.2 nM to 6.0 μM; 50 mM Tris/HCl pH 7.4, 150 mM NaCl, 10 mM MgCl2, 0.05% Tween 20; temperature jump analysis; triplicates; conditions: both partners purified
[2] = target: T2, RBM7 1-98 (RRM);ZCCHC8Pro (proline-rich …); test: fluorescence anisotropy; affinity stated similar to RBM7 alone; KD value only in figure inset; 20 mM Tris/HCl pH 7.5, 150 mM NaCl, 2 mM DTT, 20 °C, 10 nM RNA, 50 µl; conditions: protein: recombinant;recombinant; tags: ;; copies: 1;1; label: 5'-6-FAM; single strand
RBM7 1-98 (RRM) = target: T3, RBM7 1-98 (RRM); test: fluorescence anisotropy; KD value only in inset of the figure, not in material; 20 mM Tris/HCl pH 7.5, 150 mM NaCl, 2 mM DTT, 20 °C, 10 nM RNA, 50 µl; conditions: protein: recombinant; label: 5'-6-FAM; single strand

Kd [1] [nM]	Binder	binding result [2]	binding result (RBM7 1-98 (RRM))
28	RFKPGVISEELQDALGVTDKSLPPFIYRMRQLGYPPGWLK (domain or fragment, human, UniProt Q6NZY4 285-324, looked up, eYFP joined by a Gly-Ser linker serves as the fluorophore of the MST; source: purified; not shown: (GS)3 linker and eYFP, C-terminal, kept) [ZCCHC8^Pro-(GS)3-eYFP fusion protein]	–	–
–	UUUUUUUU (ssRNA) [U8 RNA]	binds	binds
